# Test results: the nanobody polyreactivity screen of Harvey et al. (2022)
# Assay: yeast display, Sf9 membrane polyspecificity reagent, FACS + sequencing; frameworks hold sequencing errors
# In short: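 A nanobody's polyreactivity label depends on the gate it was sorted from. Yeast display cells were stained with 10% biotinylated, detergent-solubilized Sf9 membrane reagent for 1 hour at 4 °C, enriched on streptavidin microbeads and sorted by FACS. The low and high (top ~1%) gates were set on anti-HA fluorescence for expression and streptavidin fluorescence for reagent binding.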
row,Sequence,polyreactivity (PSR sort gate)
1,QVQLVESGGGLVQAGGSLRLSCAASGRIFSTYAMVWYREAPGKEMELVAAINKIGGSTYYADSVKGRFTISRDNAKNTVYLQMNSLKPEDTAVYYCAADAPYYPFRRYYYWGQGTQVTVSS,low polyreactivity
2,QVQLVESGGGLVQAGGSLRLSCAASGSTFDSYAMGRYRQAPGKERELVAAITNGGSTYYADSVKGRFTISRDNAKNTVYLQMHSLKPEDTAGYYCATDDYLLDNLYDYWGQGTQVTVSS,low polyreactivity
3,QVQLVESGGGLVQAGGSLRLSCAASGFTFYLNAMGWYRQAPGKERELVAAISYSDGSTYYADSVKGRFTISRDNAKNTVYFQMNSLKPEDSAVYYCDADTTDPGGAFQLKDYWGQGTQVTVSS,high polyreactivity
4,QVQLVESGGGLVQAGGSLLLSCAASGRIIGYYAMGLYRQAPVKERELVAAISRRGGSTYYADSVKGRFTISRDNAKNTVYLQINSLKPEDTAVYYCNADRVLTRPRYDYWGQGTQVTVSS,low polyreactivity
5,QVQLVESGGGLVQAGGSLRLSCAASGRIFVGYAMGWYRQAPGKERELVAVISGRGGSTYYADSVKGRFTISRDNAKNTVYLQMNSLKPEDTAVYYCATDYYGPDYPLDYWGQGTQVTVSS,low polyreactivity
6,QVQLVESGGGLVQAGGSLRLSCAASGRTFTYYAMGWYRQAPGKERELVADINRSGGDTYYADSVKGRFTISRDNAKNTVYLQMNSLKPEDTAVYYCAADDWGAQHRYDYWGQGTQVTVSS,low polyreactivity
7,QVQLVESGGGLVQAGGSLRLSCAASGRIFFGYAMGWYRPAPGKERVLVAAISSRGGSTYYADSVKGRFTISRDNAKNTVYLKMNSLKPEDTAVYYCARKRYKRSTRTEFGYWGQGTQVTVSS,high polyreactivity
8,QVQLVESGGGLVQAGGSLRLSCAASGRTFDVYAMGWYRQAPGKERELVATISYRSARTYYADSVKGRFTISRDNAKNTVYLQMNSLKPEDTAVYYCAAYFETWHGVGYWGQGTQVTVSS,high polyreactivity
9,QVKLVESGGGLVQAGGSLRLSCAASGIIFYDYAMGWYRQAPGKERELVAAISSGGDTYYADSVKGRFTISRDNAKNTVYLQMNSLKPEVTAVYYCAAYPPFIYSDPSIWYDYWGQGSQVTVSS,low polyreactivity
10,QVQLVESGGGLVQAGGSLRLSCAASGLTFPHYAMGWYRQAPGKEREFVAVISWSGGSTSYADSVKGRFTISRDNAKNTVYLQMNSLKPEDTAVYYCAAVYRTREWSYYYWGQGTQVTVSS,high polyreactivity
11,QVQLVESGGGLVQAGGSLRLSCAASGSIFPYYAMGWYRQATGKERELVATITSRGGSTYYADSVKGRFTISRDNAKNTVYLQMNSLIPEDTAVYNCAKEYRYYRRRYDYWGQGTQVTVSS,high polyreactivity
12,QVQLVESGGGLVQAGGSLRLSCAASGRIFYYNAMGWYRPAPGKVRELVAVMTGGGSTNYADSVKGRFTISRDNAKNTVYLQMNSLKPEDTAVYYCAARRAWGTKYHGYDYWGQGTQVTVSS,low polyreactivity
13,QVQLVESGGGLVQAGGSLRLSCAASGSIFIYYAMGWYRQAPGKERELVAAISSSGGSTYYADSVKGRFTISRDNAKNTVYLQTNSLKPEDTAVYYCATVPYRYYDDDYWGQGTQVTVSS,high polyreactivity
14,QVQLVESGGGLVQAGGSLRLICAASGFIFGHNAMGWYRQAPGKERELVAAITWRGRTYYADSVKGRFTISRDNAKNCVYLQMNSMKPEDTSVFSCNAYVRYGYDYWGQGTQVTVSS,high polyreactivity
15,QVQLVESGGGLVQAGGSLRLSCAASGSIFSANARGWYRQAPGKERELVASITGDGSTNYADSVKGRFTISRDNAKNPGYLQMNSLKPEDTAVYYCAADIGSWYDYWGQGTQVTGSS,low polyreactivity
16,QVQLVESGAGLVQAGGSLSLSCAASGSIFGYYTMGWYRQAPGKERELVAAISRSGTSTFYADSVKGRFTISRDNAKNTVYLQMNSLKQEDTAVYYCNAVGSGYRSWYDYWGQGTKVTVSS,high polyreactivity
17,QVQLVESGGGLVQAGGSLRLSCAASGSIFDHNAMGWYRQAPGKEREFVARITSSGGGTYYADSVKGRFTISRDNAKNTVYLQMNSLKPEDTAVYYCAKTYYRQGARYPTLFYYWGQGTQVTVSS,low polyreactivity
18,QVQLVESWGCLVQAGGSLRLSCAASRSTFLSYAMGWDRQAPGKERELVAAISWSGGRTYYADSVKGRFTISRDHAKNTVYLQMNSLKPDDSAVYYCNAGQGYRAPLYNLYDYWGQGTQVTVSS,low polyreactivity
19,QVQLVESGGGLVQAGGRLRLSCAASGRICIIYALGWYRQAPGKEREFVAAITSSGGSTYYADSVKGRFTISRDNAKNTVYLQMNSLTPEDTAVYYCAARVTKLRTSSLRGYWGQGTQVTVSS,high polyreactivity
20,QVQLVESGVGLVQAGGSLRLSWTASGRIFSWYAMGWYRQAPGKERELVADISWGTGSTYYADTVKGRFTISRDNAKHTVDLQMNSLKPEDTAVYYCAADPGYYYEYRRFYYWGQGTQVTVSS,high polyreactivity
21,QVQLVESGGGLVQAGGSLRLSCAASGLIFYYYAMGWYRQAPGKERELVAAITTGGGTYYADSVKGRFTISRDNAKNTVYLQMNSLKPEDTAVYYCAVYYRSYWGYEYWGQGTQVTVSS,high polyreactivity
22,QVQLVESGGGLVQAGGSLRLSCAASGSIFDSNAMGWYRQAPGKERELVADIRGIGGSTYYADSVKGRFTISRDHAKNTVYLQMNSLKPEDTAVYYCNTSTLGGYYWGQGTQVTVSS,low polyreactivity

row,Sequence,polyreactivity (PSR sort gate)
1,QVQLVDSGGGLGQAGGSLRLSCAASGIIISGYAMGWYRQAPGKERELVASIRSGSNTYYADSVKGRFTISRDNAKNTVYLQKNSLNPEDTAVYYCAARVVPATFRFIRYPNTYYYWGQGSQVTVSS,low polyreactivity
2,QVQLVESRGGLVQAGGSLRLSCAASGSTFSPYVMGWYREAPGKERELFAAIRGRGGNTYYADSVKGRFTISRDNAKNTVYLQMNSLKPEDSAVYYCAAQSFAQYGWRYGDWGQVTQVTVSS,high polyreactivity
3,QVQLVESGGGLVQAGGSLRLSCAASGFTLWLYAMGWYRQAPGKERELVASISWAGGSTYYADSVKGRFTISRDNAKNTVYLQMNSLKPEDTAVYYCAASRARTRSAYNYSGQGTQVTVSS,high polyreactivity
4,QVQLVESGGGLVQAVGSLRLSCAASGFTFGRYAMGWYIQAPAKEREFVASISARGGNTFYADSVKGRFTISRDNAKNTVYLQMNSLKPEDTAVYYCNAYYLAEYDYWGQGTQVTVSS,high polyreactivity
5,QVQLVESGGGLVQAGGSHRLSCAASGRTFRPYAMGWYRQAPGKERELVAAITGGTRKYYADSVKGRFTISRDNAKNSVYLQMNSLKPEVTAVYSCAKGDFFSKHDYRGQGTQVTVSS,low polyreactivity
6,QVQLVESGGGLVQAGGSLRLSCAASGRIFFGYAMGWYRPAPGKEREFVAAINWIGGRTYYAASVKGRFTISRDNAKNTVYLQMNSLKPEDTAVYYCAKEVSPYWTFDYWGQGTQVTVSS,low polyreactivity
7,QVQLVESGGGLVQAGGSLRLSCAASGSTFNLYAMGWYRQAPGKERELVASISRSGVSTYYADSVKGRFTISRDNAKNTVYLQMNRLKPEDTAVYYCAVDKVLYRLYPGMDYWGQGTQVTVSS,low polyreactivity
8,QVQLVESGGGLVQAGGSLRLSCAASGSICDVNAMGWYRQAPGKEREMVAAISDSGGSTYYADSVKGRFTISRDTAKNTVYLQMNSLNPEDTSVYYCNADWSWYNYYDFDYWGQGTQVTVSS,low polyreactivity
9,QVQLVESGGGLVQAGGSLRLSCAASGRTYVFYVMGWYRQAPGKERELVASISRSGGSTYYADSVKGRFTISRDNAKNTVYLQMNSLKPEDTAVYYCAADQLYYGERDYIWGYYYWGQGTQVTVSS,low polyreactivity
10,QVQLVESGGGLVQAGGSLRLSCAASGLTIASYVMGWYRQAPGKERELVAAISSSGDSTYYADSVKGRFTISRDNAKNTVYLQMNSLKPEDTAVYYCAAKDSVWGQGTQVTVSS,low polyreactivity
11,QVQLVESGGGLVQAGGSLRLSCAASGRIFYPYAMGWYRQAPGKERELVASITSGGGTYYADSVKGRFTISRDNAKNSVYLQMNSLKPEDTAVYYCAAKYYTSWIRYDYWGQGTQVTVSS,low polyreactivity
12,QVQLVESGGALVQARGSLRLSCSASGSTFFHNFKGWYRQEPGKERELVAAISGSGTRSYYADSVKGRFTISRDNAKNTVYLQMNSLKPEDTAVYYCNVVPLRVPSYLPKYYYWGQGTQVTVSS,high polyreactivity
13,QVQLVESGGGLVQAGGSLRLSCAAYGRIFSRNAMGWYRQAPGKERELVAAITSSGGSTYYADSVKGRFTISRDNAKNTVYLQMNSLKPEDTAVYYCNAVSRWWPAGFDYWGQGTQVTVSS,high polyreactivity
14,QVQLVESGGGLVQAGGSLRLSCAASGAIFSWNAMGWYRQAPGKERELVATITWNGGRTYYADSVKGRFTISRDNAKKTVYLQMNSLKPEATAVYYCAARNTQPASYGYGYWGQGTQVTVSS,high polyreactivity
15,QVQLVESGGGLVQAGGSLRLSCAASGNTLDYYAMGWYRQAPGKEREVVEGIDDRTSTNYADSVKGRFTISRDNAKYTVYLQMNSLKPEDTAVYYCNADDGTVNYTSYYSPAVTYDSWGQGTQVTVSS,low polyreactivity
16,QVQLVESGGGLVQAGGSLRLSCAASGSTFFNYAMGLYRQAPGKERELVAAITSVGSTYYADSVKGRFTISRDNAKYTVYLQMNSLKPEDTAVYYCNAESYFWDFYDYDHWGQGTQVTVSS,low polyreactivity
17,QVQLVESGGGLVQAGGSLRLSCAASGFTFYNYAMGWYRQAPGKERELVAAISTSGGSTYYADSVKGRFTISRDNAKNTVYLQMNSLKPEDTAVYYCAAQATAYSYAYYYWGQGTQVTVSS,low polyreactivity
18,QVQLVESGGGIVQAGGSLRLSCAASGITFDLYAMGWSRQAPGKERELVAASTYYADSVKWRFTISRDYAKNTVYLQMNSLKPEDTAVYYCITREPVTSDYWGLGTQVTVSS,high polyreactivity
19,QVQLVESGGGLVQAGGSLRLSCAASGRTFFSNAMGWYRPAPGKERELVAAISNGDNTYYADSVKGRFTISRDNAKNTVYLQMNSLKPEDTAVYYCAADQYWSWIYYPVVEYDYWGQGTQVTVSS,low polyreactivity
20,QVQLVESGGGLVQAGGSLRLSCAASGSIFNYSAMGWYRQARGKERELVAGITTSGGSTYYADSVKGRFTISRDNAKNTVYLQMNSLKPEDTAVYYCAAYDYISSTYFLDDYWGQGTQVTVSS,low polyreactivity
21,QVQLVESGGGLVQAGGSLRLSCAASGLIFYYYAMGWYRQAPGKERELVAAITAIGDRTYYADSVKGRFTISRDNAKNTVYLQMNSLKPEDTAVYYCAAGWLLYNRYGIITYDYWGQGTQVTVSS,high polyreactivity
